The target in one test is T1, HLA-A*02:01 (Homo sapiens, UniProt P04439, D140Y/D185E/D98H/E176V/E277Q/G131W/G231S/I119V/I121R/I166T/I218V/L300P/L318F/N151K/N90K/P208A/P217A/Q86G/Q94H/R138H/R169H/T345S).
T1 construct: T2 cells can usually only express a low level of empty MHC class I molecules on the cell surface; endogenous in cells; host or cells: T2-A24 cells (human lymphoblastoid T2 cells, TAP-deficient)
The format is binding.

For test [1], the system named is HLA-A*02:01 transgenic mouse. The test can be described thus: In vivo CTL induction test, IFNγ ELISPOT of spleen cells, HLA-A*02:01 transgenic mouse. The conditions noted are these: 250 μg/location intradermal with IFA, spleen after one week. The source says:
(§1) An HLA-A*02:01 transgenic mouse (C57BL/6CrHLA-A2.1DR1) is a mouse that is deficient in mouse MHC and expresses HLA-A*02:01 and HLA-DRB1*01:01, which are human MHCs, and the use of this mouse enables a peptide that can induce CTLs in humans to be selected. Furthermore, an HLA-A*24:02 transgenic mouse is a mouse that expresses HLA-A*24:02, which is a human MHC, and the use of this mouse enables a peptide that can induce CTLs in a human to be selected. Whether or not each peptide has an activity in inducing CTLs was determined by whether or not T cells that can react with the administered peptide are induced by administering the peptide to the mouse.
(§2) Specifically, it was carried as follows. First, the peptide was dissolved in dimethyl sulfoxide at 80 mg/mL, then diluted with water for injection, and mixed with an equal part of incomplete Freund's adjuvant (IFA or ISA51VG), thus forming an emulsion. The peptide thus emulsified was administered to the mouse tail base intradermally at two locations at a dose of 250 μg/location. One week after that, the mouse was euthanized with CO2 gas, the spleen was removed, and spleen cells were prepared. For measurement of IFNγ production, an IFNγ ELISPOT assay kit (Becton, Dickinson and Company) was used. On the day before preparing the spleen cells, an ELISPOT plate was treated with an anti-IFNγ antibody, and on the day it was blocked with 10% FBS-containing RPMI 1640 medium. The spleen cells prepared were plated on the blocked ELISPOT plate at 0.25 to 1.0×10^6 cells/well. The administered FAM83B-derived peptide was dissolved in DMSO at 40 mg/mL and further diluted with 10% RPMI 1640 medium to 20 μg/mL. The diluted peptide was added at 50 μL/well to the spleen cells derived from the animal to which the peptide had been administered. In vitro peptide restimulation was applied by culturing the spleen cells to which the peptide was added under 5% CO2 at 37° C. for 16 to 18 hours. After culturing, the supernatant was removed, and the ELISPOT plate was subjected to color development in accordance with the included protocol. The number of color developed spots was measured by KS-ELISPOT.

Test [2] deals with HLA-A*24:02 transgenic mouse. The test can be described thus: In vivo CTL induction test, IFNγ ELISPOT of spleen cells, HLA-A*24:02 transgenic mouse. The note with it: 250 μg/location intradermal with IFA, spleen after one week.
Source text: as §1, §2

The target in another test is HLA-A*24:02 (Homo sapiens, UniProt P04439, D101N/D140Y/D185E/E176V/E190D/F33S/G103R/G107R/I119L/I121M/I306V/K335N/L105A/L180Q/L300P/N151K/N90K/Q86E/Q94H/R106L/R138H/R89G/T104I/T345S/V100E/W191G/Y123F). The format is binding.

Several values for one entry are separate records, joined by “and”; a condition that tells them apart may be missing. Equal values may be shown once. Entries after “also recorded” stand apart in the source; their conditions may differ.

As for ALVMDIFTDV [Peptide F151_10], the “binding to HLA-A02 (in words)” value in the test with HLA-A*02:01 is on record as “capable of binding to HLA-A02”. The “CTL inducibility (peptide-specific IFNγ production in spleen cells)” value (shortened to “CTL inducibility”) in test [1] (listed as SEQ ID No: 37) is given as “had CTL inducibility; also recorded: having CTL inducibility”.
As for “EADPTGHSY [HLA-A*02:01 Negative control, MAGE-1161-169 peptide as an HLA-A02-negative control, reference compound]”, the “HLA-A*02:01 Negative control, MFI as solvent ratio” value with HLA-A*02:01 was 1.1 and 1.0.
Regarding FLAEEEINYI [Peptide F55_10], the “binding to HLA-A02 (in words)” value with HLA-A*02:01 is recorded as “capable of binding to HLA-A02”. The “CTL inducibility” value in test [1] is given as “having CTL inducibility”.
Taken in the same sequence, the figures for FLAEEEINYIL [Peptide F55_11] were “capable of binding to HLA-A02” and “having CTL inducibility”.
The matching figures for FLLVDCQKVM [Peptide F231_10]: “capable of binding to HLA-A02” and “having CTL inducibility”.
In the case of FLVQERVSDFL [Peptide F46_11], the “Evaluation results HLA-A0201, mean fluorescence intensity (MFI) as solvent ratio” value with HLA-A*02:01 worked out at 1.4.
As to GLLGGTHIDLL [Peptide F114_11], the “binding to HLA-A02 (in words)” value with HLA-A*02:01 was “capable of binding to HLA-A02”. The “CTL inducibility” value in test [1] is “having CTL inducibility”.
Turning to GWPYVMPGLL [Peptide F107_10], the “CTL inducibility” value in test [2] (listed as SEQ ID No: 6) was “had CTL inducibility; also recorded: having CTL inducibility”. Moreover, the “binding to HLA-A24 (in words)” value with HLA-A*24:02 is on record as “capable of binding to HLA-A024”.
Regarding HLLTIKETI [Peptide F131_9], the “binding to HLA-A02 (in words)” value with HLA-A*02:01 was “capable of binding to HLA-A02”. The “CTL inducibility” value in test [1] (listed as SEQ ID No: 35) is reported as “had CTL inducibility; also recorded: having CTL inducibility”.
As to HYKEWYRVAI [Peptide F23_10], the “CTL inducibility” value in test [2] (listed as SEQ ID No: 4) and in test [1] (listed as SEQ ID No: 4) was “had CTL inducibility; also recorded: having CTL inducibility” throughout. For the same sequence, the “binding to HLA-A02 (in words)” value with HLA-A*02:01 is given as “capable of binding to HLA-A02”. The “binding to HLA-A24 (in words)” value with HLA-A*24:02 is “capable of binding to HLA-A024”.
In the case of KVIALVMDI [Peptide F148_9], the “CTL inducibility” value in test [2] and in test [1] was “having CTL inducibility” in each case. Also, the “binding to HLA-A02 (in words)” value with HLA-A*02:01 is “capable of binding to HLA-A02”. For the same sequence, the “binding to HLA-A24 (in words)” value in the test with HLA-A*24:02 was “capable of binding to HLA-A024”.
Consider KVMYGSYSYMWSF [Peptide F238_13], for which the “CTL inducibility” value in test [2] is recorded as “having CTL inducibility”. For the same sequence, in the test with HLA-A*24:02, the “binding to HLA-A24 (in words)” value was “capable of binding to HLA-A024”.
In the case of LLDESNFNHFL [Peptide F179_11], the “binding to HLA-A02 (in words)” value with HLA-A*02:01 is “capable of binding to HLA-A02”. Besides, in test [1] (listed as SEQ ID No: 38), the “CTL inducibility” value was “had CTL inducibility; also recorded: having CTL inducibility”.
For the sequence LVQERVSDFL [Peptide F47_10], the “CTL inducibility” value in test [2] (listed as SEQ ID No: 75) is reported as “had CTL inducibility; also recorded: having CTL inducibility”. Moreover, the “binding to HLA-A24 (in words)” value with HLA-A*24:02 was “capable of binding to HLA-A024”.
As to LYARSCVPSSF [Peptide F276_11], the “CTL inducibility” value in test [2] (listed as SEQ ID No: 14) is reported as “had CTL inducibility; also recorded: having CTL inducibility”. In addition, in the test with HLA-A*24:02, the “binding to HLA-A24 (in words)” value is recorded as “capable of binding to HLA-A024”.
For MVQIITGQLV [Peptide F257_10], the “binding to HLA-A02 (in words)” value with HLA-A*02:01 is recorded as “capable of binding to HLA-A02”. Also, in test [1], the “CTL inducibility” value is “having CTL inducibility”.
The matching figures for NLDLGWPYV [Peptide F103_9]: “capable of binding to HLA-A02” and “having CTL inducibility”.
NYIEPHYKEW [Peptide F18_10]: the “CTL inducibility” value in test [2] (listed as SEQ ID No: 74) was “had CTL inducibility; also recorded: having CTL inducibility”. Moreover, the “binding to HLA-A24 (in words)” value with HLA-A*24:02 is listed as “capable of binding to HLA-A024”.
On to PFCKIESSI [Peptide F939_9], for which the “CTL inducibility” value in test [2] (listed as SEQ ID No: 23) is reported as “had CTL inducibility; also recorded: having CTL inducibility”. Also, in the test with HLA-A*24:02, the “binding to HLA-A24 (in words)” value is recorded as “capable of binding to HLA-A024”.
On to PLPESIPKL [Peptide F594_9], for which the “Evaluation results HLA-A0201, mean fluorescence intensity (MFI) as solvent ratio” value in the test with HLA-A*02:01 worked out at 1.4.
“RGYVYQGL [HLA-A*24:02 Negative control, reference compound]”: on HLA-A*24:02, the “HLA-A*24:02 Negative control, MFI as solvent ratio” value is 1.0 and 1.1.
As to RLCSSSDTLV [Peptide F799_10], in the test with HLA-A*02:01, the “binding to HLA-A02 (in words)” value was “capable of binding to HLA-A02”. Besides, the “CTL inducibility” value in test [1] (listed as SEQ ID No: 57) is reported as “had CTL inducibility; also recorded: having CTL inducibility”.
Turning to SMVQIITGQLV [Peptide F256_11], in the test with HLA-A*02:01, the “binding to HLA-A02 (in words)” value is reported as “capable of binding to HLA-A02”. The “CTL inducibility” value in test [1] (listed as SEQ ID No: 60) is “had CTL inducibility; also recorded: having CTL inducibility”.
Consider SYGRSSPLL [Peptide F971_9], for which, in test [2] (listed as SEQ ID No: 24), the “CTL inducibility” value was “had CTL inducibility; also recorded: having CTL inducibility”. Further, the “binding to HLA-A24 (in words)” value with HLA-A*24:02 was “capable of binding to HLA-A024”.
On to SYMWSFEKAHL [Peptide F245_11], for which the “CTL inducibility” value in test [2] (listed as SEQ ID No: 12) was “had CTL inducibility; also recorded: having CTL inducibility”. Also, the “binding to HLA-A24 (in words)” value with HLA-A*24:02 is given as “capable of binding to HLA-A024”.
TLSSGTYWPV [Peptide F86_10]: in the test with HLA-A*02:01, the “binding to HLA-A02 (in words)” value is “capable of binding to HLA-A02”. Moreover, in test [1], the “CTL inducibility” value is recorded as “having CTL inducibility”.
On to TYQHSVSSL [Peptide F305_9], for which the “CTL inducibility” value in test [2] (listed as SEQ ID No: 15) is “had CTL inducibility; also recorded: having CTL inducibility”. Moreover, the “binding to HLA-A24 (in words)” value in the test with HLA-A*24:02 is “capable of binding to HLA-A024”.
Regarding VIALVMDIFT [Peptide F149_10], the “CTL inducibility” value in test [2] was “having CTL inducibility”. For the same sequence, in the test with HLA-A*24:02, the “binding to HLA-A24 (in words)” value is on record as “capable of binding to HLA-A024”.
Taken in the same sequence, the figures for VMDIFTDVDIF [Peptide F153_11] were “having CTL inducibility” and “capable of binding to HLA-A024”.
With VMYGSYSYMW [Peptide F239_10], the “CTL inducibility” value in test [2] is listed as “having CTL inducibility”. The “binding to HLA-A24 (in words)” value in the test with HLA-A*24:02 is “capable of binding to HLA-A024”.
Consider VYILLDESNF [Peptide F176_10], for which the “CTL inducibility” value in test [2] (listed as SEQ ID No: 9) was “had CTL inducibility; also recorded: having CTL inducibility”. Also, the “binding to HLA-A24 (in words)” value with HLA-A*24:02 is on record as “capable of binding to HLA-A024”.
As to YILKNVQKV [Peptide F63_9], the “binding to HLA-A02 (in words)” value with HLA-A*02:01 is reported as “capable of binding to HLA-A02”. In test [1], the “CTL inducibility” value is “having CTL inducibility”.

The values are drawn from patent publication US20160310583A1, “TUMOR ANTIGEN PEPTIDE” (Sumitomo Dainippon Pharma Co., Ltd., priority 2013, published 2016).
